From US20230295293A1, “BINDING MOLECULES AGAINST FRa” (AstraZeneca AB, priority 2022, published 2023) come the findings set out here.

Where a chain is given by its changes, count along the chain named.

First the molecules themselves.
B1: AB1370035: anti-FRα fully human IgG1 antibody; VH SEQ ID NO: 41, VL SEQ ID NO: 42 (antibody, V domains shown)
VH: QVQLQQSGPGLVKPSQTLSLTCAISGDSVSSNSAAWNWIRQSPSRGLEWLGRTYYRSNWYNDYTLSVKSRITVNPDTSKNQFSLQLNSVTPEDTAVYYCVRGVGRFDSWGQGTLVTVSS
VL: DIQMTQSPSTLSASVGDRVIITCRASQSISSWLAWYQQKPGKAPKLLIYKASSLESGVPSRFSGSGSGTEFTLTITSLQPDDFASYYCQEYKTYSIFTFGPGTKVDIK
B2: AB1370026: anti-FRα fully human IgG1 antibody; VH SEQ ID NO: 39, VL SEQ ID NO: 40 (antibody, V domains shown)
VH: EVQLVESGGGLVKPGGSLRLSCAASGFTFSSYAMSWVRQAPGKGLEWVSSISSGRSYIYYADSVKGRFTISRDNAKNSLYLKMNSLRDEDTAVYYCAREMQQLALDYWGQGTLVTVSS
VL: DIQMTQSPSSLSASVGDRVTITCRASQGISNFLAWFQQAPGKAPKSLIYAASSLQSGVPSKFSGSGSGTDFTLTISSLQPEDFATYYCQQYNSYPFTFGQGTKLEIK
B3: AB1370095: anti-FRα fully human IgG1 antibody; VH SEQ ID NO: 45, VL SEQ ID NO: 46 (antibody, V domains shown)
VH: EVQLVESGGGLVKPGGSLRLSCAASGFTFSSYSMNWVRQAPGKGLEWVSSISSRSSYVYYADSVKGRFTISRDNAKNSLYLQMNSLRAEDTAVYYCARGMTTLTFDYWGQGTLVTVSS
VL: B2 VL with N31S, A39K, F96L, Q100G, L104V
B4: AB1370083: anti-FRα fully human IgG1 antibody; VH SEQ ID NO: 43, VL SEQ ID NO: 44 (antibody, V domains shown)
VH: B3 VH with S33N, R54G, V58I, V64M, Y80F
VL: B2 VL with N31T, A39K, G68E, N92I, F96L, Q100G, L104V

The term Cmax denotes the peak of the concentration-time curve. As a reminder, the Vss is the apparent volume that relates the amount in the body to the concentration in plasma or blood.

Chain of cyno FRα (as listed by the source): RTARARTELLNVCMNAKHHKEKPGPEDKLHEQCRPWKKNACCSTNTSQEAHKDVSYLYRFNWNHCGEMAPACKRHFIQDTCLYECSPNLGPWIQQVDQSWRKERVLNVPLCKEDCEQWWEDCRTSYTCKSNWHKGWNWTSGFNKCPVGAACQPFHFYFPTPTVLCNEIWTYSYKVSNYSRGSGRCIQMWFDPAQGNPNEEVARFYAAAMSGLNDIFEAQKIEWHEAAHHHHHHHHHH
T1 sequence (P15328 with tags, fused parts or gaps): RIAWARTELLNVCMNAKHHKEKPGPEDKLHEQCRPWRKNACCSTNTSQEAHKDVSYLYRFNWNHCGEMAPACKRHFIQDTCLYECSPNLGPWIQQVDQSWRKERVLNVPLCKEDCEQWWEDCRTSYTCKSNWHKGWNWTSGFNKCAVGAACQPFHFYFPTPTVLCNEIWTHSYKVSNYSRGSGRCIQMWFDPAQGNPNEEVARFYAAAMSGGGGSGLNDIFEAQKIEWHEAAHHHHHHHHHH

One data set has as its target T1, human FRα (Homo sapiens, UniProt P15328).
T1 construct: CD33 leader (signal peptide) (N, cleaved yes); made in house; host or cells: in-house suspension-adapted CHO cell line
Kind of data set: HTRF antigen (IgG) binding assay. To be noted: hybridoma supernatant, 1 nM biotinylated antigen; binder >30% delta F. As to the method:
(§1) The negative control ratio was derived from nonspecific binding (NSB) control wells. Curves were analysed using GraphPad Prism software using a four-parameter logistic curve-fitting equation.
For orientation: In TR-FRET formats the signal depends on donor and acceptor labels being close together.
In the case of B1, the “HTRF IgG binding assay (% Delta F) Human FRα” value came to 225.19 % Delta F.

Turning to B2, the “HTRF IgG binding assay (% Delta F) Human FRα” value is recorded as 270.58 % Delta F.

Regarding B3, the “HTRF IgG binding assay (% Delta F) Human FRα” value stood at 126.25 % Delta F.

As for B4, the “HTRF IgG binding assay (% Delta F) Human FRα” value stood at 139.98 % Delta F.

In a further data set the target is T2, human FRβ (Homo sapiens, UniProt P14207).
T2 construct: CD33 signal peptide (N, cleaved yes); made in house
T2 sequence (P14207 with tags, fused parts or gaps): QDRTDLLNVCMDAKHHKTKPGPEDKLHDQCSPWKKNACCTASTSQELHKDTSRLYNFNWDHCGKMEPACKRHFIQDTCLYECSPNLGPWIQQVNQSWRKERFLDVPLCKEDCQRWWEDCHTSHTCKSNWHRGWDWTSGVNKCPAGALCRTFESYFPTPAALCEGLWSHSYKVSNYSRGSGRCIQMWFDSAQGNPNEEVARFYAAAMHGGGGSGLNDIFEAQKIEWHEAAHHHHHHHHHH
Briefly: HTRF antigen (IgG) binding assay. To be noted: hybridoma supernatant, 1 nM biotinylated antigen; binder >30% delta F. As to the method: as §1
Turning to B1, the “HTRF IgG binding assay (% Delta F) Human FRβ” value is −3.26 % Delta F.

For B2, the “HTRF IgG binding assay (% Delta F) Human FRβ” value is recorded as −0.38 % Delta F.

For the molecule B3, the “HTRF IgG binding assay (% Delta F) Human FRβ” value is given as −5.87 % Delta F.

Regarding B4, the “HTRF IgG binding assay (% Delta F) Human FRβ” value was determined as 3.81 % Delta F.

In a further data set the target is T3, human FRγ (Homo sapiens, UniProt P41439).
T3 construct: CD33 signal peptide (N, cleaved yes); made in house
T3 sequence (P41439 with tags, fused parts or gaps): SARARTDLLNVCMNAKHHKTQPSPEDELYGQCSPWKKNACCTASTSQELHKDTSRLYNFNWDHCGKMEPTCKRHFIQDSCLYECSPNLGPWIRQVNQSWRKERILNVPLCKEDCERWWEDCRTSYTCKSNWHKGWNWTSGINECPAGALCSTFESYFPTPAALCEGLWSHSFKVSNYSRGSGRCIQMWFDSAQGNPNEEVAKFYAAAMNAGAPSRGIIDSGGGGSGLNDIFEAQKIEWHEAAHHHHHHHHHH
Briefly: HTRF antigen (IgG) binding assay. To be noted: hybridoma supernatant, 1 nM biotinylated antigen; binder >30% delta F. As to the method: as §1
For B1, the “HTRF IgG binding assay (% Delta F) Human FRγ” value came out at 9.2 % Delta F.

On to B2, for which the “HTRF IgG binding assay (% Delta F) Human FRγ” value was 1.31 % Delta F.

In the case of B3, the “HTRF IgG binding assay (% Delta F) Human FRγ” value is −1.17 % Delta F.

With B4, the “HTRF IgG binding assay (% Delta F) Human FRγ” value was −2.92 % Delta F.

A further data set deals with T4, mouse FRα (Mus musculus, UniProt P35846).
T4 construct: CD33 signal peptide (N, cleaved yes); made in house
T4 sequence (P35846 with tags, fused parts or gaps): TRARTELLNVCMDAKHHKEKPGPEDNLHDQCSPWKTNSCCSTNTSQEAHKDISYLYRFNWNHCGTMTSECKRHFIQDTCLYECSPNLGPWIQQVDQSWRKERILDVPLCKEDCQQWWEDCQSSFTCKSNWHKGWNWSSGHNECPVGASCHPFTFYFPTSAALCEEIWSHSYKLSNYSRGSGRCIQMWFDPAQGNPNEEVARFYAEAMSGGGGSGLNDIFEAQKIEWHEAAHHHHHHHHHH
Kind of data set: HTRF antigen (IgG) binding assay. To be noted: hybridoma supernatant, 1 nM biotinylated antigen; binder >30% delta F. The method, then:
as §1
In the case of B1, the “HTRF IgG binding assay (% Delta F) Mouse FRα” value is listed as −5.22 % Delta F.

In the case of B2, the “HTRF IgG binding assay (% Delta F) Mouse FRα” value was determined as 1.63 % Delta F.

With B3, the “HTRF IgG binding assay (% Delta F) Mouse FRα” value is −5.66 % Delta F.

Take B4: the “HTRF IgG binding assay (% Delta F) Mouse FRα” value is −3.65 % Delta F.

The subject of a further data set is cyno FRα. Kind of data set: HTRF antigen (IgG) binding assay. On the set-up: species or system cynomolgus monkey. To be noted: hybridoma supernatant, 1 nM biotinylated antigen; binder >30% delta F. As to the method:
as §1
As to B1, the “HTRF IgG binding assay (% Delta F) Cyno FRα” value worked out at 141.47 % Delta F.

B2: the “HTRF IgG binding assay (% Delta F) Cyno FRα” value is 213.68 % Delta F.

B3: the “HTRF IgG binding assay (% Delta F) Cyno FRα” value came to 85.33 % Delta F.

Regarding B4, the “HTRF IgG binding assay (% Delta F) Cyno FRα” value worked out at 85.16 % Delta F.

The next data set concerns the target T1, human FRα. Kind of data set: HTRF epitope competition assay with Comparator 1 IgG. Format: binding. To be noted: n > 2; human IgG1 format. As to the method: (§2) HTRF epitope competition assays were set up using a titration of test IgG, 1 nM streptavidin cryptate, biotinylated human FRα and DyLight 650 labelled IgG to assay volume of 10 μl. For the Comparator Antibody 1 and Comparator Antibody 2 assays, 0.5 nM biotinylated human FRα and 0.5 nM DyLight 650 labelled Comparator Antibody 1 or Comparator Antibody 2 was used. […] Assay plates were incubated for 3-4 h at room temperature prior to fluorescence measurement.
With B1, the “HTRF epitope competition assay, geomean IC50 (M), Comparator 1 IgG” value is reported as “inhibited”.

In the case of B2, the “HTRF epitope competition assay, geomean IC50 (M), Comparator 1 IgG” value is reported as “inhibited”.

As to B3, the “HTRF epitope competition assay, geomean IC50 (M), Comparator 1 IgG” value is listed as “inhibited”.

For the molecule B4, the “HTRF epitope competition assay, geomean IC50 (M), Comparator 1 IgG” value is recorded as “inhibited”.

Another data set concerns the target T1, human FRα. Kind of data set: HTRF epitope competition assay with Comparator 2 IgG. Format: binding. To be noted: n > 2; human IgG1 format. As to the method: as §2
Take B1: the “HTRF epitope competition assay, geomean IC50 (M), Comparator 2 IgG” value is recorded as “inhibited”.

On to B2, for which the “HTRF epitope competition assay, geomean IC50 (M), Comparator 2 IgG” value is given as “inhibited”.

Regarding B3, the “HTRF epitope competition assay, geomean IC50 (M), Comparator 2 IgG” value is “inhibited”.

Consider B4, for which the “HTRF epitope competition assay, geomean IC50 (M), Comparator 2 IgG” value is “inhibited”.

A further data set addresses T1, human FRα. Kind of data set: HTRF epitope competition assay with Comparator 3 IgG. Format: binding. To be noted: n > 2; human IgG1 format. The method, then:
as §2
Regarding B1, the “HTRF epitope competition assay, geomean IC50 (M), Comparator 3 IgG” value is “inhibited”.

With B2, the “HTRF epitope competition assay, geomean IC50 (M), Comparator 3 IgG” value is “no inhibition”.

B3: the “HTRF epitope competition assay, geomean IC50 (M), Comparator 3 IgG” value is “no inhibition”.

As for B4, the “HTRF epitope competition assay, geomean IC50 (M), Comparator 3 IgG” value was “no inhibition”.

A further data set has as its target T1, human FRα. Kind of data set: Biacore T200 surface plasmon resonance affinity. Format: binding. To be noted: SPR 25° C. As to the method: (§3) Protein A was covalently immobilised to a CM5 chip surface using standard amine coupling techniques at a concentration of 50 μg/ml in 10 mM Sodium acetate, pH 4.0. The antibody was captured onto the Protein A surface in HBS-EP+ buffer, pH 7.4 at 10 μl/min to enable FRα ECD binding. The FRα ECD was serially diluted (0.4 nM-100 nM human FRα ECD; 0.8 nM-200 nM cyno FRα ECD; 30 nM-4000 nM mouse FRα ECD and rat FRα ECD) in HBS-EP+ buffer, pH 7.4 and flowed over the chip at 50 μl/min, with 2 minutes association and 8 minutes dissociation. The chip surface was fully regenerated with pulses of 3 M MgCl2 to remove captured antibody together with any bound FRα ECD. Multiple buffer-only injections were made under the same conditions to allow for double reference subtraction of the final sensorgram sets, which were analysed using Biacore T200 Evaluation Software to derive equilibrium dissociation constants.
On the technique in general: In SPR one partner is held on a chip, and binding of the other changes the refractive index at the surface.
As for B1, the ka stood at 568000 M⁻¹ s⁻¹ and the kd amounted to 0.000527 s⁻¹.

The molecule B2 yielded a ka of 279000 M⁻¹ s⁻¹ and a kd of 0.000354 s⁻¹.

Regarding B3, the ka is 95700 M⁻¹ s⁻¹ and the kd is 0.00129 s⁻¹.

The molecule B4 came in with a ka of 145000 M⁻¹ s⁻¹ and a kd of 0.000135 s⁻¹.

The subject of the next data set is cyno FRα. Briefly: Biacore T200 surface plasmon resonance affinity. To be noted: SPR 25° C. Format: binding, cynomolgus monkey. The method, then: as §3
B1 showed a ka of 475000 M⁻¹ s⁻¹ and a kd of 0.000508 s⁻¹.

Turning to B2, the ka stood at 195000 M⁻¹ s⁻¹ and the kd stood at 0.000342 s⁻¹.

In turn, B3 showed a ka of 95800 M⁻¹ s⁻¹ and a kd of 0.00183 s⁻¹.

With B4, the ka worked out at 101000 M⁻¹ s⁻¹ and the kd was 0.00016 s⁻¹.

Test system in a further data set: not listed separately
Briefly: Hydrophobic interaction chromatography (HIC) HPLC. To be noted: higher retention = more hydrophobic. Format: physicochemical.
In the case of B1, the “Retention time by HIC-HPLC” value turned out to be 2.25 min.

For B2, the “Retention time by HIC-HPLC” value worked out at 1.96 min.

Regarding B3, the “Retention time by HIC-HPLC” value stood at 2.12 min.

As to B4, the “Retention time by HIC-HPLC” value is 2.27 min.

Test system in a further data set: not listed separately
Briefly: Accelerated thermal stability assay, HP-SEC. Format: physicochemical. To be noted: 4° C., 2 weeks, 1 mg/ml in PBS. The method, then: IgG were diluted to 1 mg/ml in PBS then incubated at 4° C. or 45° C. for 2 weeks then filtered using filter spin columns (Millipore, UFC30HVNB). High performance-size exclusion chromatography (HP-SEC) was performed by loading 70 μl of IgG onto a TSKgel G3000SWXL; 5 μm, 7.8 mm×300 mm column using a flow rate of 1 ml/min and 0.1 M sodium phosphate dibasic anhydrous and 0.1 M sodium sulphate, pH 6.8 as the isocratic running buffer. Larger molecules are excluded from the pores of the size exclusion column to a greater extent than smaller molecules, and therefore elute earlier. Peaks eluting earlier than the monomer peak are recorded as aggregates. Peaks eluting after the monomer peak (excluding the buffer-related peak) are recorded as fragments. In parallel, antibodies were profiled in the HTRF epitope competition assay for changes in potency.
In general terms: SEC sorts molecules by how far they enter the pores of the column.
For B1, the “HP SEC % monomer” value came to 100%.

Consider B2, for which the “HP SEC % monomer” value is on record as 100%.

B3: the “HP SEC % monomer” value was found to be 99.2%.

Consider B4, for which the “HP SEC % monomer” value came out at 99.6%.

The same data set, now with this note: 45° C., 2 weeks, 1 mg/ml in PBS.
For B1, the “HP SEC % monomer” value is 97.3%.

B2: the “HP SEC % monomer” value amounted to 97.3%.

Regarding B3, the “HP SEC % monomer” value was found to be 96.6%.

Consider B4, for which the “HP SEC % monomer” value is reported as 98.3%.

Test system in the next data set: not listed separately
Kind of data set: Pharmacokinetics of anti-FRα antibodies in wild-type SCID mice. Format: in vivo, mouse. To be noted: 5 mg/kg iv bolus, total antibody. As to the method:
Pharmacokinetic parameters were determined using Phoenix 64 software (Certara).
Plasma antibody concentrations were determined by the universal ELISA IgG assay.
Take B1: the AUClast was determined as 455 µg·days/mL, the CL was 5.6 mL/day/kg, the Cmax was 73.2 µg/mL and the Vss amounted to 0.16 L/kg. Further, the t1/2 is listed as 19.5 days.

B2 showed an AUClast of 553 µg·days/mL, a CL of 5.3 mL/day/kg, a Cmax of 91.7 µg/mL and a Vss of 0.124 L/kg. The t1/2 was 16.6 days.

B3 came in with an AUClast of 646 µg·days/mL, a CL of 6.6 mL/day/kg, a Cmax of 123.2 µg/mL and a Vss of 0.071 L/kg. The same molecule registered a t1/2 of 7.8 days.

B4 registered an AUClast of 430 µg·days/mL, a CL of 8.6 mL/day/kg, a Cmax of 86.0 µg/mL and a Vss of 0.132 L/kg. In addition, the t1/2 stood at 11.0 days.
